B1: SLC6A17 (parent)
chain: KAVEEELDAEDRPAWNSKLQYILA
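Also: lentivirally expressed fusions sorted by FACS into six bins by GFP to DsRed ratio, PSI derived from sequencing read proportions per bin multiplied by bin number.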

Variants of: B1
Test: protein stability index of a GFP-peptide fusion (GPS, HEK-293T) (PSI 1-6); higher = more stable
Conditions: c terminus: a fixed tail appended
L19A showed a protein stability index of 3.8. With L19K the protein stability index was 3.99. L19P gave a protein stability index of 3.4. L19R gave a protein stability index of 3.63. With L19C the protein stability index was 3.56. In the case of L19I, the protein stability index is reported as 2.52. With L19M the protein stability index was 2.8. With L19F the protein stability index was 2.96. Variant L19H has a protein stability index of 3.69. L19Y showed a protein stability index of 2.52. Variant L19T has a protein stability index of 3.83. Work on L19V yielded a protein stability index of 2.28. Variant L19Q has a protein stability index of 3.92. L19S showed a protein stability index of 2.75. Work on L19D yielded a protein stability index of 4.1. For L19N, the protein stability index was 4.2. In the case of L19W, the protein stability index is reported as 2.48. L19E showed a protein stability index of 4.27. In the case of N16M, the protein stability index is reported as 2.37. With N16A the protein stability index was 2.25. For N16R, the protein stability index was 2.75. Work on N16T yielded a protein stability index of 2.07. N16Q showed a protein stability index of 2.1. N16Y showed a protein stability index of 2.09. With N16E the protein stability index was 2.81. Work on N16H yielded a protein stability index of 2.83. N16L gave a protein stability index of 2.06. Work on N16D yielded a protein stability index of 3.45. With N16V the protein stability index was 2.58. In the case of N16F, the protein stability index is reported as 2.14. N16W showed a protein stability index of 2.05. Work on N16S yielded a protein stability index of 3.01. Variant N16I has a protein stability index of 2.05. With N16C the protein stability index was 2.08. N16K gave a protein stability index of 2.52. N16P showed a protein stability index of 2.75. With Y21A the protein stability index was 3.99. For Y21R, the protein stability index was 2.8. With Y21H the protein stability index was 3.16. With Y21F the protein stability index was 2.9. Variant Y21N has a protein stability index of 3.42. Variant Y21K has a protein stability index of 3.67. For Y21Q, the protein stability index was 2.75. Work on Y21I yielded a protein stability index of 3.09. For Y21L, the protein stability index was 2.83. With Y21M the protein stability index was 3.4. Variant Y21C has a protein stability index of 4.37. Y21P showed a protein stability index of 4.58. For Y21D, the protein stability index was 3.92. In the case of Y21S, the protein stability index is reported as 3.92. With Y21V the protein stability index was 2.08. In the case of A24K, the protein stability index is reported as 3.08. A24G gave a protein stability index of 3.52. Work on A24F yielded a protein stability index of 2.73. In the case of A24I, the protein stability index is reported as 2.23. For A24H, the protein stability index was 2.15. Work on A24C yielded a protein stability index of 2.46. For A24D, the protein stability index was 3.55. Variant A24E has a protein stability index of 2.63. Work on S17N yielded a protein stability index of 3.15. S17E showed a protein stability index of 4.48. S17D gave a protein stability index of 3.17. With S17G the protein stability index was 2.75. Variant S17A has a protein stability index of 2.55. For S17T, the protein stability index was 2.25. S17Q showed a protein stability index of 2.32. With S17R the protein stability index was 3.4. For S17H, the protein stability index was 2.23. Variant S17V has a protein stability index of 2.46. S17C gave a protein stability index of 1.99. S17I showed a protein stability index of 1.83. Work on S17M yielded a protein stability index of 2.33. For S17K, the protein stability index was 2.19. In the case of S17P, the protein stability index is reported as 2.97. In the case of S17Y, the protein stability index is reported as 2.16. For S17L, the protein stability index was 1.99. S17W gave a protein stability index of 1.82. In the case of S17F, the protein stability index is reported as 2.5. Work on I22F yielded a protein stability index of 2.2. In the case of I22P, the protein stability index is reported as 4.44. For I22H, the protein stability index was 4.5. I22Y showed a protein stability index of 3.94. I22L gave a protein stability index of 2.83. With I22V the protein stability index was 3.04. Variant I22W has a protein stability index of 2.9. In the case of I22D, the protein stability index is reported as 4.86. With I22E the protein stability index was 5.01. For I22C, the protein stability index was 3.13. For I22T, the protein stability index was 4.4. In the case of I22M, the protein stability index is reported as 1.79. Work on I22R yielded a protein stability index of 4.15. I22G gave a protein stability index of 4.06. In the case of I22A, the protein stability index is reported as 3.8. I22K gave a protein stability index of 3.78. Work on I22N yielded a protein stability index of 4.41. With L23Q the protein stability index was 3.82. For L23M, the protein stability index was 2.6. With L23H the protein stability index was 3.84. L23I gave a protein stability index of 2.64. With L23K the protein stability index was 3.89. L23W showed a protein stability index of 3.19. Variant L23Y has a protein stability index of 3.01. In the case of L23R, the protein stability index is reported as 4.42. For L23E, the protein stability index was 4.91. For L23D, the protein stability index was 4.9. For L23V, the protein stability index was 3.17. Variant L23G has a protein stability index of 3.99. L23C gave a protein stability index of 3.59. For L23A, the protein stability index was 3.9. Work on L23S yielded a protein stability index of 4.23. With L23T the protein stability index was 3.91. L23N showed a protein stability index of 4.18. In the case of L23P, the protein stability index is reported as 3.97. Work on L23F yielded a protein stability index of 3.03. With W15M the protein stability index was 3.74. W15P showed a protein stability index of 3.68. For W15R, the protein stability index was 3.62. In the case of W15T, the protein stability index is reported as 3.46. In the case of W15G, the protein stability index is reported as 3.82. Variant W15I has a protein stability index of 3.69. Variant W15F has a protein stability index of 3.1. With W15E the protein stability index was 4.65. W15L showed a protein stability index of 2.52. For W15H, the protein stability index was 4.06. For W15Q, the protein stability index was 4.04. In the case of W15K, the protein stability index is reported as 3.99. With W15V the protein stability index was 2.2. With W15N the protein stability index was 4.13. In the case of W15Y, the protein stability index is reported as 2.77. Work on W15S yielded a protein stability index of 3.92. Variant K18V has a protein stability index of 1.64. For K18Y, the protein stability index was 3.15. K18F gave a protein stability index of 2.17. Work on K18N yielded a protein stability index of 4.01. Work on K18R yielded a protein stability index of 2.69. Variant K18P has a protein stability index of 3.77. Work on K18L yielded a protein stability index of 1.98. With K18H the protein stability index was 2.7. With K18Q the protein stability index was 3.22. In the case of K18E, the protein stability index is reported as 3.76. Variant K18A has a protein stability index of 3.16. Work on K18I yielded a protein stability index of 2.13. In the case of K18W, the protein stability index is reported as 2.53. K18S gave a protein stability index of 3.07. Variant K18D has a protein stability index of 4. K18T gave a protein stability index of 3.05. With K18C the protein stability index was 3.19. With K18M the protein stability index was 2.27. Work on Q20T yielded a protein stability index of 2.25. Q20M showed a protein stability index of 2.16. Work on Q20V yielded a protein stability index of 2.13. Q20P showed a protein stability index of 3.25. Work on Q20G yielded a protein stability index of 2.32. In the case of Q20K, the protein stability index is reported as 2.92. Q20E showed a protein stability index of 2.89. Work on Q20N yielded a protein stability index of 2.9. With Q20D the protein stability index was 3.56. Q20S showed a protein stability index of 2.71. Work on Q20Y yielded a protein stability index of 2.4. With Q20H the protein stability index was 2.53. Q20R gave a protein stability index of 3.39. Variant Q20A has a protein stability index of 2.06. With Q20C the protein stability index was 2.13. Q20L showed a protein stability index of 1.88. In the case of Q20W, the protein stability index is reported as 1.56. With Q20I the protein stability index was 1.57. In the case of Q20F, the protein stability index is reported as 1.9.

From the supplement of paper PMC10567573
